Among the data in patent US20240279341A1 (Alector, published 2024) are Kd values, retold here.

Usually Kd stands for the free concentration of one partner at which half of the binding sites on the other are occupied at equilibrium, for simple one-to-one binding.

Sequences and labels used below:
T1: recombinant human MerTK extracellular domain (human, UniProt Q12866 21-505)
T1 construct: also called huMerTK; not shown: PolyHis tag or TEVS/Thrombin/murine IgG2a Fc tag (a DDDDK-tagged commercial protein is also mentioned); which form was t
T1 sequence: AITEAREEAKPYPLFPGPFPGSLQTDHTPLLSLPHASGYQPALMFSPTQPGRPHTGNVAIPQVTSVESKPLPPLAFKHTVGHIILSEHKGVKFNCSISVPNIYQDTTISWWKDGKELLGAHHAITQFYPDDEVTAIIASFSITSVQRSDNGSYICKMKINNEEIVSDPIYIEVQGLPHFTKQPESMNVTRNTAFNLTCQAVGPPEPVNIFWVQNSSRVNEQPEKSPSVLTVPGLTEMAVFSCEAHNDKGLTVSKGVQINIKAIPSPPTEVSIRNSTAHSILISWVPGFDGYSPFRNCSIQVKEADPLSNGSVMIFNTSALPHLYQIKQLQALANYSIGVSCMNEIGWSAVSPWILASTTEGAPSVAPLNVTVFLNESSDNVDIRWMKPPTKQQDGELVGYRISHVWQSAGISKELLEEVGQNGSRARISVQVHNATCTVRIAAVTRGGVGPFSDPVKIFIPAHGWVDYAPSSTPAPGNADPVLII

T2: recombinant cynomolgus MerTK extracellular domain (cynomolgus monkey, UniProt Q12866 21-505 (human entry))
T2 construct: also called cynoMerTK; cyno MerTK; not shown: PolyHis tag or TEVS/Thrombin/murine IgG2a Fc tag
T2 chain: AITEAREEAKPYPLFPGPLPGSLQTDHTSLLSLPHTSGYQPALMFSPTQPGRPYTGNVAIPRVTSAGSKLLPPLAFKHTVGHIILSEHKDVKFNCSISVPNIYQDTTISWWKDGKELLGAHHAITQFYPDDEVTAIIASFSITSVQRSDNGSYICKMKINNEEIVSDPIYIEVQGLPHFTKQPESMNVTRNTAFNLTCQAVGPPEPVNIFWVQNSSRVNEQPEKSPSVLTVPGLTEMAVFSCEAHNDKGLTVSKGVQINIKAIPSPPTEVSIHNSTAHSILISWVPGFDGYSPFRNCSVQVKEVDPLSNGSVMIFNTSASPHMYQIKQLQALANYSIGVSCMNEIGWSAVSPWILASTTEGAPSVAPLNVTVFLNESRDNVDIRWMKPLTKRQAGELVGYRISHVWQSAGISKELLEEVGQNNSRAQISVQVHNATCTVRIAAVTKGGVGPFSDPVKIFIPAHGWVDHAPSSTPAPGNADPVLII

B1: monovalent anti-MerTK antibody MTK-16.2 (antibody, V domains shown)
VH: QVQLVQSGSELKKPGASVKVSCKASGYTFTNHGMNWVRQAPGQGLEWMGWINTYTGEPTYADDFKGRFVFSLDTSVSTAYLQISSLKAEDTAVYYCARKGVTAARYFDYWGQGTLVTVSS
VL: DIQMTQSPSSLSASVGDRVTITCRASQNVRTAVAWYQQKPGKAPKRLIYLASNRHTGVPSRFSGSGSGTEFTLTISNLQPEDFATYYCLQHWNYPLTFGGGTKLEIK
B2: bispecific anti-MerTK MTK-16.2:anti-PDL1 antibody (bispecific antibody, V domains shown)
VH 1: B1 VH
VL 1: B1 VL
VH 2: not shown
VL 2: not shown
B3: bivalent anti-MerTK antibody MTK-16.2 (full IgG) (antibody, V domains shown)
VH: B1 VH
VL: DIQMTQSPSSLSASVGDRVTITCRASQNVRTAVAWYQQKPGKAPKRLIYLASNRHTGVPSRFSGSGSGTEFTLTISNLQPEDFATYYCLQHWNYPLTFGGGTKLEIKR
B4: monovalent anti-MerTK antibody MTK-33.11 (antibody, V domains shown)
VH: QVQLVQSGAEVKKPGASVKVSCKASGYTFTSYWMHWVRQAPGQGLEWIGVIDPSDNYINYNQKFQGRVTMTRDTSTSTVYMELSSLRSEDTAVYYCAREAWTRGYFDYWGQGTLVTVSS
VL: DIQMTQSPSSLSASVGDRVTITCQASRSVRNTVAWYQQKPGKAPKLLIYYASNRYTGVPSRFSGSGSGTDFTFTISSLQPEDIATYYCQQDYRSPFTFGQGTKLEIK
B5: bivalent anti-MerTK antibody MTK-33.11 (full IgG) (antibody, V domains shown)
VH: B4 VH
VL: DIQMTQSPSSLSASVGDRVTITCQASRSVRNTVAWYQQKPGKAPKLLIYYASNRYTGVPSRFSGSGSGTDFTFTISSLQPEDIATYYCQQDYRSPFTFGQGTKLEIKR
B6: bispecific anti-MerTK MTK-33.11:anti-PDL1 antibody (bispecific antibody, V domains shown)
VH 1: B4 VH
VL 1: B4 VL
VH 2: not shown
VL 2: not shown

The first test deals with T1, recombinant human MerTK extracellular …. In words: SPR (Carterra LSA), antibody immobilized, MerTK ECD as analyte; estimate, fits not ideal for a 1:1 model. The method, then: (§1) Binding kinetics of bispecific anti-MerTK:anti-PDL1 antibodies of the present disclosure to human, cyno, and murine MerTK were evaluated using a Carterra LSA instrument. […] A HC30 sensor chip (Carterra) was activated using the single channel flow cell with a 7-minute injection of a 1:1:1 mixture of 100 mM MES pH 5.5, 100 mM sulfo-NHS, 400 mM EDC (all reconstituted in MES pH 5.5; 100 μl of each mixed in vial immediately before running assay). After switching to the multi-channel array flow cell, the antibodies were injected over the activated chip in a 96-spot array for 15 minutes. A duplicate injection of the antibodies on a second block of the chip was spotted as before. The remaining unconjugated active groups on the chip were then blocked by injecting 1M Ethanolamine pH 8.5 (Carterra) for 7 minutes using the single channel flow cell.
(§2) After priming with running buffer (HBS-TE, Carterra) with 0.5 mg/ml BSA (Sigma), the immobilized anti-MerTK antibodies were tested for their ability to bind to several forms of recombinant MerTK extracellular domain, including that of human, cynomolgus, and mouse orthologs as described above. Estimates of affinity were generated by injecting each analyte over the entire antibody array using the single channel flow cell. […] Dissociation was followed for 300 seconds before regenerating after each injection with 2×30 seconds of 10 mM Glycine pH2.5. Three buffer blanks were run between each series (one species per series). After all concentrations of all three species of MerTK were injected, a duplicate set of injections was performed, so that each concentration for all three species was injected in widely spaced duplicates. Data were processed and analyzed using NextGenKIT high-throughput kinetics analysis software (Carterra).
As for B1, the dissociation constant Kd is 50 nM.

B2: the Kd is 30 nM.

For B3, the Kd was 50 nM.

For B4, the Kd is 2 nM.

Take B5: the Kd was 2 nM.

In the case of B6, the Kd is 2 nM.

The next test has as its target T2, recombinant cynomolgus MerTK …. The test is described as above. On the procedure:
as §1, §2
On to B1, for which the Kd was 60 nM.

As for B2, the Kd was 30 nM.

For the molecule B3, the Kd was 60 nM.

For the molecule B4, the Kd was 3 nM.

Turning to B5, the Kd is 2 nM.

In the case of B6, the Kd is 2 nM.
